Measurements published in US20210238262A1.

Target: ZIKV PR (Puerto Rican strain, PRVABC59) virus (Zika virus strain PRVABC59)
Assay: cell-based or functional assay

Z004 (antibody)
micro-neutralization (MN50) in Vero cells, IC50: 1.4 ng/mL
